In patent publication US20080044360A1 (COLLAGEN MEDICAL, published 2008):
Bridge positions count the residues as written; N and C are the ends. Square brackets hold non-standard residues; d marks the D form. Primed or numbered codes have the meaning given here. Side chains are listed from the residue outwards. Ends that are not written are not given here. * marks the point of attachment. Phe(3-OMe) = COc1cccc(C[C@H](N)C(=O)O)c1; Phe(4-F) = N[C@@H](Cc1ccc(F)cc1)C(=O)O; hTyr = N[C@@H](CCc1ccc(O)cc1)C(=O)O; NMeA = CN[C@@H](C)C(=O)O; Gd^T″ = GdDTPA-thiourea; Cbz = O=C(OCc1ccccc1)*

Target: T1, human collagen type I, acid soluble, extracted from placenta (Sigma C7774) (human, UniProt P02452 162-1218; P08123 80-1119)
T1 construct: tissue extract, gelled and dried in wells; also called dried human collagen; h-Collagen
T1 sequence (P02452 162-1218 limits assumed, chain 1 of 2): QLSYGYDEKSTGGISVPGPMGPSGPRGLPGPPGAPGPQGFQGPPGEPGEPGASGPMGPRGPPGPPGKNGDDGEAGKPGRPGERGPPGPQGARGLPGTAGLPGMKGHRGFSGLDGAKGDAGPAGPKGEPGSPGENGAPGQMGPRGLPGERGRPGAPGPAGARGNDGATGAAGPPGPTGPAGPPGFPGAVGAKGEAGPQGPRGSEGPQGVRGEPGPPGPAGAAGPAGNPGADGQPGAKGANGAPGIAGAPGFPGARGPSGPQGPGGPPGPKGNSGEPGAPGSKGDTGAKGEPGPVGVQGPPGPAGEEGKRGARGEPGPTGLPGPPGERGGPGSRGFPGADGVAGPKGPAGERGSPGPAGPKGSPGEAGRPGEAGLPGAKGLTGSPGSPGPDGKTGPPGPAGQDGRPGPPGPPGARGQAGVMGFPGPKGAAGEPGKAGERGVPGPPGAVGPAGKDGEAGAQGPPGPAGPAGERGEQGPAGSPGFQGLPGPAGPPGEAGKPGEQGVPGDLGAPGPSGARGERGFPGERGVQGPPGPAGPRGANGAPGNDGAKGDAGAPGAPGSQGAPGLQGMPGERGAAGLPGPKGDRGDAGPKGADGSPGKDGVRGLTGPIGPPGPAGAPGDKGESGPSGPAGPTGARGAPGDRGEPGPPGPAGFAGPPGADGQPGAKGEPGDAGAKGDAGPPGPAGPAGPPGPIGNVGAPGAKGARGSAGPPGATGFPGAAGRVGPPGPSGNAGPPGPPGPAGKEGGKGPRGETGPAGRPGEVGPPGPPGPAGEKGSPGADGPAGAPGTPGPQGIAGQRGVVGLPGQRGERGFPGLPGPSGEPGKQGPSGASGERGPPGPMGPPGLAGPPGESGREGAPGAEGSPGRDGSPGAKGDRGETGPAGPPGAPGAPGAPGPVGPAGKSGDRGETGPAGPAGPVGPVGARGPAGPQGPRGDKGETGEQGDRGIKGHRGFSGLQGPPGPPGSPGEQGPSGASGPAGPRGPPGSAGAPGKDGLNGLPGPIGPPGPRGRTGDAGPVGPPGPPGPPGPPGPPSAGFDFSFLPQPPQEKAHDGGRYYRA
T1 sequence (P08123 80-1119 limits assumed, chain 2 of 2): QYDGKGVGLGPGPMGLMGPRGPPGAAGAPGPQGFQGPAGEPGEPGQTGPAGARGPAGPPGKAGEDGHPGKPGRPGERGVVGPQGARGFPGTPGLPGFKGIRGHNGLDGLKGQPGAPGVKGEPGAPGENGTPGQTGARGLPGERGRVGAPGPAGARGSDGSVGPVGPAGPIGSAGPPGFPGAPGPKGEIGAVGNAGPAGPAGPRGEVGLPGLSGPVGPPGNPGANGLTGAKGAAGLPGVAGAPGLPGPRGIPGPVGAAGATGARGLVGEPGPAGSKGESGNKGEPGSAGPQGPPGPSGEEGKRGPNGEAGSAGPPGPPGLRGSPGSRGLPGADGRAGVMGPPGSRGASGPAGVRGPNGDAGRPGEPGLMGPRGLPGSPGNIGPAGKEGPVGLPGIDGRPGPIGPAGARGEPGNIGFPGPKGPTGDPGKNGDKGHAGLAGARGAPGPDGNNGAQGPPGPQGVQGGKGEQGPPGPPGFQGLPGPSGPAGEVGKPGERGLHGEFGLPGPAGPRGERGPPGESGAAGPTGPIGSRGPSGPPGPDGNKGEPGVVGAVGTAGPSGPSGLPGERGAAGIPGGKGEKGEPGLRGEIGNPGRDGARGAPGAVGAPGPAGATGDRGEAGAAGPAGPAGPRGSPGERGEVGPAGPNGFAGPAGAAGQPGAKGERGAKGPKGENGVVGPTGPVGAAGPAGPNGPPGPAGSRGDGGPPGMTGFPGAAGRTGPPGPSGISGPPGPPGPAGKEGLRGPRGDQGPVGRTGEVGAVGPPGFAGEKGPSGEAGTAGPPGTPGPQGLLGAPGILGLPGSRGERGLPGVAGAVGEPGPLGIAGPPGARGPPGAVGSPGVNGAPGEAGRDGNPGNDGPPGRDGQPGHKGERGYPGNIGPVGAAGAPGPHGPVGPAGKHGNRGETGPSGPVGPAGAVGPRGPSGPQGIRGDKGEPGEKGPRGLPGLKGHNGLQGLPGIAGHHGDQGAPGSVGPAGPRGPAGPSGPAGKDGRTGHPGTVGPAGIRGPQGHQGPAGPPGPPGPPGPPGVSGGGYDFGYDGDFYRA
Experiment: dried collagen assay

Row | % bound [%] | Binder
1 | 68 | {Gd^T″}-GQWNCTTLFPHHYCLYG (disulfide 5-14 (inferred)) [Compound ID 922]
2 | 24 | {Gd^T″}-GQWHCTTLFPHNYCLYG (disulfide 5-14 (inferred)) [Compound ID 924]
3 | 78 | {Gd^T″}-GK([Gly-Gd^T″])WHCTTYFPHHYCVYG (disulfide 5-14 (inferred)) [Compound ID 942]
4 | 73 | {Gd^T″}-GQWHCTTLFPHHYCVYG (disulfide 5-14 (inferred)) [Compound ID 928]
5 | 21 | {Gd^T″}-GQWHCTTRFPHH[hTyr(Me)]CLYG (disulfide 5-14 (inferred)) [Compound ID 934]
6 | 31 | {Gd^T″}-GK([Gly-Gd^T″])WHCTTLFPHHYCLYG (disulfide 5-14 (inferred)) [Compound ID 930]
7 | 71 | {Gd^T″}-GK([Gly-Gd^T″])WHCTTYFPYHYCLYG (disulfide 5-14 (inferred)) [Compound ID 946]
8 | 91 | {Gd^T″}-GK([Gly-Gd^T″])WHCYTYFPHHYCVYG (disulfide 5-14 (inferred)) [Compound ID 944]
9 | 28 | {Gd^T″}-GQWHCTTLFPNHYCLYG (disulfide 5-14 (inferred)) [Compound ID 923]
10 | 36 | {Gd^T″}-GQWHCTTRFPHH[hTyr]CLYG (disulfide 5-14 (inferred)) [Compound ID 933]
11 | 55 | {Gd^T″}-GK([Gly-Gd^T″])WHCYTYFPHHYCLYG (disulfide 5-14 (inferred)) [Compound ID 943]
12 | 70 | {Gd^T″}-GQWHCTTRFPHHYCFYG (disulfide 5-14 (inferred)) [Compound ID 931]
13 | 64 | {Gd^T″}-GQWHCTTLFPHHYCIYG (disulfide 5-14 (inferred)) [Compound ID 927]
14 | 59 | {Gd^T″}-GQWHCTTRFPHH[Phe(3-OMe)]CLYG (disulfide 5-14 (inferred)) [Compound ID 935]
15 | 81 | Cbz-GQWHCTTK(Gd^T″)FPHHYCLYG (disulfide 5-14 (inferred)) [Compound ID 926]
16 | 27 | {Gd^T″}-GQWHCTT[Phe(4-F)]FPHHYCLYG (disulfide 5-14 (inferred)) [Compound ID 929]
17 | 16 | {Gd^T″}-GQWHCTTRF[NMeA]HHYCLYG (disulfide 5-14 (inferred)) [Compound ID 938]
18 | 83 | {Gd^T″}-GK([Gly-Gd^T″])WHCYTYFPHHYCVYY (disulfide 5-14 (inferred)) [Compound ID 945]

Target: T2, rat collagen, acid soluble, type I, rat tail (Upstate 08-115) (rat, UniProt P02454 152-1207; P02466 86-1125)
T2 construct: tissue extract, gelled and dried in wells; also called dried rat collagen
T2 sequence (P02454 152-1207, chain 1 of 2): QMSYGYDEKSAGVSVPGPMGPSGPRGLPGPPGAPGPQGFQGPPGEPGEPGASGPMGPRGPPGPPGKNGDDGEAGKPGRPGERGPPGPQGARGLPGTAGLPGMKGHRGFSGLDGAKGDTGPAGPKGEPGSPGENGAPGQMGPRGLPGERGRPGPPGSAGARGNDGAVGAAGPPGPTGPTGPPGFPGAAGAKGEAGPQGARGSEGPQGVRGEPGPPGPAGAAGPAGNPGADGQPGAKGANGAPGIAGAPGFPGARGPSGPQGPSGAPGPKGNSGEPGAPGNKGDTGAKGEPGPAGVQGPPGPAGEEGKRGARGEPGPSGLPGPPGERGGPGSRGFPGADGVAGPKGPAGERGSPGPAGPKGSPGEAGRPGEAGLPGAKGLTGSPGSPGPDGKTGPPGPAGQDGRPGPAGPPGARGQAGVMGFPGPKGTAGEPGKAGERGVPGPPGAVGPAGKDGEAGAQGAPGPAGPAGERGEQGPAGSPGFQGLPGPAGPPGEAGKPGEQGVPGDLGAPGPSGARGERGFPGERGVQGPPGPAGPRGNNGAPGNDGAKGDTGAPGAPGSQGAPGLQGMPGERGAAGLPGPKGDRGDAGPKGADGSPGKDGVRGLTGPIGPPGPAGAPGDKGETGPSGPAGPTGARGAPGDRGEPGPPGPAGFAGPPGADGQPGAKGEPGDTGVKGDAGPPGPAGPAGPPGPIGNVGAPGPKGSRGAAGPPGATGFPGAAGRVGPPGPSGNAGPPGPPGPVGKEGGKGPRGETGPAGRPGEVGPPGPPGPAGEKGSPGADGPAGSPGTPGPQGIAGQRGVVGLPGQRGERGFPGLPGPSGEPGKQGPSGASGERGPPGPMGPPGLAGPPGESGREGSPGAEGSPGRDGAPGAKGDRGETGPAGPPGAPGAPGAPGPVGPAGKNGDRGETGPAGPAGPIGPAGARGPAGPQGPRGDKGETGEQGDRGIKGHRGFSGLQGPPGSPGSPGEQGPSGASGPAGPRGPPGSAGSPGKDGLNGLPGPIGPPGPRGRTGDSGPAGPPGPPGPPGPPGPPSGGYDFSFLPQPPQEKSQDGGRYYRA
T2 sequence (P02466 86-1125, chain 2 of 2): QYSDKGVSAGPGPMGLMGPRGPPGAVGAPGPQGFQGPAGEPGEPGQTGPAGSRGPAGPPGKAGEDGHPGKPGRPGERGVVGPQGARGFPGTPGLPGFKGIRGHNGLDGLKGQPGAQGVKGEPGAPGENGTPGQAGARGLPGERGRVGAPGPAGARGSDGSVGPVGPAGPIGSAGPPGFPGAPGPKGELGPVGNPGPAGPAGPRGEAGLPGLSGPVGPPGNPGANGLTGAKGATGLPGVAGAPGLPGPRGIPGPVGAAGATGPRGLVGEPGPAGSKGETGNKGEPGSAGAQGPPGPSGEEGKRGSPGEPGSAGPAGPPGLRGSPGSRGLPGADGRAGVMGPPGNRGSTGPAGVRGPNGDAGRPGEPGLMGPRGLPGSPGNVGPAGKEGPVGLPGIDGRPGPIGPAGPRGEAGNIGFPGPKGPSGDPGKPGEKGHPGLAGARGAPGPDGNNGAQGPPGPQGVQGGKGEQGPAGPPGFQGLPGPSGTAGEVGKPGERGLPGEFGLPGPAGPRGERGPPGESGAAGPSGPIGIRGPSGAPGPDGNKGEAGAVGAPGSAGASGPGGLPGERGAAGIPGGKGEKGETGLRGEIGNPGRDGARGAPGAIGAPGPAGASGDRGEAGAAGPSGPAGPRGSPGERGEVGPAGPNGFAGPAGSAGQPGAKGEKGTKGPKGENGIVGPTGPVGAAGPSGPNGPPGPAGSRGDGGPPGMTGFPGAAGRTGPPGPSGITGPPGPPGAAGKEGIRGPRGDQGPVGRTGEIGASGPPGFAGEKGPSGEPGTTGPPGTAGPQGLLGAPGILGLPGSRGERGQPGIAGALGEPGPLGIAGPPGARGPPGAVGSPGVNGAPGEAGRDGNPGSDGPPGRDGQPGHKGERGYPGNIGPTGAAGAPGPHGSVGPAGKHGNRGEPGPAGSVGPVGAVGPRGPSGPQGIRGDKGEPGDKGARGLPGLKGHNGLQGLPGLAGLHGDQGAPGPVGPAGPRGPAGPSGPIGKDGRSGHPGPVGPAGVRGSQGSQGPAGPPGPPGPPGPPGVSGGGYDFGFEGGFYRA
Experiment: dried collagen assay

Row | % bound [%] | Binder
19 | 58 | {Gd^T″}-GQWNCTTLFPHHYCLYG (disulfide 5-14 (inferred)) [Compound ID 922]
20 | 1 | {Gd^T″}-GQWHCTTLFPHNYCLYG (disulfide 5-14 (inferred)) [Compound ID 924]
21 | 67 | {Gd^T″}-GK([Gly-Gd^T″])WHCTTYFPHHYCVYG (disulfide 5-14 (inferred)) [Compound ID 942]
22 | 80 | {Gd^T″}-GQWHCTTLFPHHYCVYG (disulfide 5-14 (inferred)) [Compound ID 928]
23 | 14 | {Gd^T″}-GQWHCTTRFPHH[hTyr(Me)]CLYG (disulfide 5-14 (inferred)) [Compound ID 934]
24 | 42 | {Gd^T″}-GK([Gly-Gd^T″])WHCTTLFPHHYCLYG (disulfide 5-14 (inferred)) [Compound ID 930]
25 | 68 | {Gd^T″}-GK([Gly-Gd^T″])WHCTTYFPYHYCLYG (disulfide 5-14 (inferred)) [Compound ID 946]
26 | 84 | {Gd^T″}-GK([Gly-Gd^T″])WHCYTYFPHHYCVYG (disulfide 5-14 (inferred)) [Compound ID 944]
27 | 10 | {Gd^T″}-GQWHCTTLFPNHYCLYG (disulfide 5-14 (inferred)) [Compound ID 923]
28 | 24 | {Gd^T″}-GQWHCTTRFPHH[hTyr]CLYG (disulfide 5-14 (inferred)) [Compound ID 933]
29 | 72 | {Gd^T″}-GK([Gly-Gd^T″])WHCYTYFPHHYCLYG (disulfide 5-14 (inferred)) [Compound ID 943]
30 | 83 | {Gd^T″}-GQWHCTTRFPHHYCFYG (disulfide 5-14 (inferred)) [Compound ID 931]
31 | 63 | {Gd^T″}-GQWHCTTLFPHHYCIYG (disulfide 5-14 (inferred)) [Compound ID 927]
32 | 39 | {Gd^T″}-GQWHCTTRFPHH[Phe(3-OMe)]CLYG (disulfide 5-14 (inferred)) [Compound ID 935]
33 | 87 | Cbz-GQWHCTTK(Gd^T″)FPHHYCLYG (disulfide 5-14 (inferred)) [Compound ID 926]
34 | 34 | {Gd^T″}-GQWHCTT[Phe(4-F)]FPHHYCLYG (disulfide 5-14 (inferred)) [Compound ID 929]
35 | 13 | {Gd^T″}-GQWHCTTRF[NMeA]HHYCLYG (disulfide 5-14 (inferred)) [Compound ID 938]
36 | 82 | {Gd^T″}-GK([Gly-Gd^T″])WHCYTYFPHHYCVYY (disulfide 5-14 (inferred)) [Compound ID 945]
